This is an account of results in patent US20200347137A1 (SYSTIMMUNE, published 2020).

The target of assay [1] is T1, PD-L1 recombinant protein (human, UniProt Q9NZQ7 19-238, limits assumed).
T1 construct: also called PD-L1 antigen
Put plainly: ForteBio Octet RED96, PD-L1 immobilised, antibody in solution. An excerpt: The antigen was immobilized on the sensor chip surface and the tested antibodies were flown over the immobilized antigens.
For orientation: Biolayer interferometry detects binding as a change in optical thickness at a sensor tip.

For assay [2], the target named is PD-L1 on CHO-PD-L1 cell line (human, UniProt Q9NZQ7 19-290). Put plainly: cell-based or functional assay.
Assay [3] concerns the target T2, PD-1 antigen expressed on the surface of cells (human, UniProt Q15116 25-288).
T2 construct: whole, on cells; also called PD-1 receptor; CHO cell line expressing PD-1 antigen
Put plainly: Flow cytometry on CHO cells expressing PD-1, Alexa Fluor 647 anti-human secondary. How it is done: (§1) Binding of the bispecific antibodies and their components to PD-1 antigen expressed on the surface of CHO cell line was assessed using FACS method. The bispecific antibodies were incubated with CHO cell line expressing PD-1 antigen and then detected with secondary anti-human antibodies directly conjugated to Alexa Fluor 647 fluorochrome. Cellular binding of the test antibodies was analyzed on a flow cytometer BD LSRFortessa.

Assay [4] deals with T2, PD-1 antigen expressed on the surface …. In words: Flow cytometry on CHO cells expressing PD-1, Alexa Fluor 647 anti-human secondary. The value is printed beside the curves without a name; the text speaks of a KD. It is assigned to the lower, right curve (triangles) by its position. On the procedure:
as §1
A general note: A flow cytometer gives signals particle by particle.

T1 sequence (Q9NZQ7 19-238 limits assumed): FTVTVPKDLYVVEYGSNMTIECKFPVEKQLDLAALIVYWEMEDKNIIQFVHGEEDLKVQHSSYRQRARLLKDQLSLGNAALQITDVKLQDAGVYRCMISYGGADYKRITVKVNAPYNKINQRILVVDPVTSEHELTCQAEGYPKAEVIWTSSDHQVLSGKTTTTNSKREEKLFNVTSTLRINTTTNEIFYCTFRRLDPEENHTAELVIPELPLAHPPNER
T2 sequence (Q15116 25-288): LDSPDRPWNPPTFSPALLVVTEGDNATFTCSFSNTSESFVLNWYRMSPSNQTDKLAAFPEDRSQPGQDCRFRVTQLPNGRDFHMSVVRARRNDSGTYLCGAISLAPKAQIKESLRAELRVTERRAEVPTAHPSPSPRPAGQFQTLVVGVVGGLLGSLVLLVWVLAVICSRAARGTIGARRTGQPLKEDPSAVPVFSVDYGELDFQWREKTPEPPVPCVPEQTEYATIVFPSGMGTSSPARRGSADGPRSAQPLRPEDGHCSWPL
PD-L1 on CHO-PD-L1 cell line, sequence (Q9NZQ7 19-290): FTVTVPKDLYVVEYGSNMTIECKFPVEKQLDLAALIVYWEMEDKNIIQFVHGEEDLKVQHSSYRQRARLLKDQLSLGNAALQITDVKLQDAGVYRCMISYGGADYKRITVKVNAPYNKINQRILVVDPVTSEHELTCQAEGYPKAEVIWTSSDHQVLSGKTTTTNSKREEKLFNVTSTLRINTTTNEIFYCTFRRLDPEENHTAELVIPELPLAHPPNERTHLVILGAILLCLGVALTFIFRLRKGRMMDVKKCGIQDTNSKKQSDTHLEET

B1: PL004B9 mAb (antibody, V domains shown)
VH: EVQLVESGGGLVQPGGSLRLSCTVSGIDLSVINMGWVRQAPGKGLEWIGTITYVGNTYYASWAKGRFTISKTSTTVDLKITSPTTEDTAVYYCARESGTIYYSYFNLWGQGTLVTVSS
VL: AFELTQSPSSLSASVGDRVTIKCQASESISNYLSWYQQIPGKVPKLLIYYASNLASGVPSRFSGSGSGTDFTLTISSLQPEDVATYYCQSYYGGGSAYTFGGGTKVEIK
notes: Anti-PD-L1 clone tested in mAb format
For orientation: Kd means the constant that tells how readily two partners part at equilibrium. Usually koff stands for the first-order rate constant of dissociation. The term kon denotes the rate constant with which the complex forms. Consider B1, for which, in assay [1], the Kd turned out to be 1.37 nM, the koff turned out to be 0.000695 s⁻¹ and the kon stood at 508000 M⁻¹ s⁻¹.

B2: PL230C6 mAb (antibody, V domains shown)
VH: QSVEESGGGLVQPGGSLRLSCTASGIDLNTYDMIWVRQAPGKGLEWVGIITYSGSRYYANWAKGRFTISKDNTKNTVYLQMNSLRAEDTAVYYCARDYMSGSHLWGQGTLVTVSS
VL: AYDMTQSPSSVSASVGDRVTIKCQASEDIYSFLAWYQQKPGKAPKLLIHSASSLASGVPSRFSGSGSGTDFTLTISSLQPEDFATYYCQQGYGKNNVDNAFGGGTKVEIK
notes: also called PL23006
Turning to B2, in assay [1], the equilibrium dissociation constant (Kd) turned out to be 0.769 nM, the koff amounted to 0.000468 s⁻¹ and the kon was found to be 609000 M⁻¹ s⁻¹.

B3: PL231H2 mAb (antibody, V domains shown)
VH: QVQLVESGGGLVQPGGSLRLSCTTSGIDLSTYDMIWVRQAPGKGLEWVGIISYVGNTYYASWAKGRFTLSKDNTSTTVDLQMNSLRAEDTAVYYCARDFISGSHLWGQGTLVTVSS
VL: AYDMTQSPSSVSASVGDRVTINCQASESISSFLSWYQQKPGKAPKLLIFSASTLASGVPSRFSGSGSGTDFTLTISSLQPEDFATYYCQQGYSKSNVDNAFGGGTKVEIK
notes: as for B1
Turning to B3, in assay [1], the Kd worked out at 0.781 nM, the koff amounted to 0.000391 s⁻¹ and the association rate constant (kon) came to 501000 M⁻¹ s⁻¹.

B4: PL221G5 IgG1 null (antibody, V domains shown)
VH: EVQLLESGGGLVQPGGSLRLSCAASGFSFSSGYDMCWVRQAPGKGLEWIACIAAGSAGITYDANWAKGRFTISRDNSKNTLYLQMNSLRAEDTAVYYCARSAFSFDYAMDLWGQGTLVTVSS
VL: DIQMTQSPSTLSASVGDRVTITCQASQSISSHLNWYQQKPGKAPKLLIYKASTLASGVPSRFSGSGSGTEFTLTISSLQPDDFATYYCQQGYSWGNVDNVFGGGTKVEIKR
With B4, the “EC50 (read off the curve), NFAT-luciferase reporter, Jurkat PD-1 cells with CHO-PD-L1 cells” value in assay [2] is approximately 0.3 nM.

B5: PL221G5 mAb (antibody, V domains shown)
VH: EVQLLESGGGLVQPGGSLRLSCAASGFSFSSGYDMCWVRQAPGKGLEWIACIAAGSAGITYDANWAKGRFTISRDNSKNTLYLQMNSLRAEDTAVYYCARSAFSFDYAMDLWGQGTLVTVSS
VL: DIQMTQSPSTLSASVGDRVTITCQASQSISSHLNWYQQKPGKAPKLLIYKASTLASGVPSRFSGSGSGTEFTLTISSLQPDDFATYYCQQGYSWGNVDNVFGGGTKVEIK
notes: as for B1
Take B5: in assay [1], the Kd was found to be 0.483 nM, the koff came to 0.000276 s⁻¹ and the kon came to 572000 M⁻¹ s⁻¹.

B6: PL004B9 Fc-scFv (Fc fusion, not shown: a dimerising Fc or GST; small tags and cut ends)
scFv: EVQLVESGGGLVQPGGSLRLSCTVSGIDLSVINMGWVRQAPGKGLEWIGTITYVGNTYYASWAKGRFTISKTSTTVDLKITSPTTEDTAVYYCARESGTIYYSYFNLWGQGTLVTVSSGGGGSGGGGSGGGGSGGGGSAFELTQSPSSLSASVGDRVTIKCQASESISNYLSWYQQIPGKVPKLLIYYASNLASGVPSRFSGSGSGTDFTLTISSLQPEDVATYYCQSYYGGGSAYTFGGGTKVEIK
notes: scFv at the C-terminus of an Fc
As to B6, in assay [1], the Kd is 1.54 nM, the koff worked out at 0.000471 s⁻¹ and the kon was 307000 M⁻¹ s⁻¹.

B7: PL230C6 Fc-scFv (Fc fusion)
scFv: QSVEESGGGLVQPGGSLRLSCTASGIDLNTYDMIWVRQAPGKGLEWVGIITYSGSRYYANWAKGRFTISKDNTKNTVYLQMNSLRAEDTAVYYCARDYMSGSHLWGQGTLVTVSSGGGGSGGGGSGGGGSGGGGSAYDMTQSPSSVSASVGDRVTIKCQASEDIYSFLAWYQQKPGKAPKLLIHSASSLASGVPSRFSGSGSGTDFTLTISSLQPEDFATYYCQQGYGKNNVDNAFGGGTKVEIK
notes: scFv at the C-terminus of an Fc; The Fc part is not specified; also called PL23006; not shown: The Fc part and the linker joining it to the scFv
Take B7: in assay [1], the Kd came to 0.868 nM, the koff turned out to be 0.000362 s⁻¹ and the kon came to 418000 M⁻¹ s⁻¹.

B8: PL221G5 Fc-scFv (Fc fusion)
scFv: EVQLLESGGGLVQPGGSLRLSCAASGFSFSSGYDMCWVRQAPGKGLEWIACIAAGSAGITYDANWAKGRFTISRDNSKNTLYLQMNSLRAEDTAVYYCARSAFSFDYAMDLWGQGTLVTVSSGGGGSGGGGSGGGGSGGGGSDIQMTQSPSTLSASVGDRVTITCQASQSISSHLNWYQQKPGKAPKLLIYKASTLASGVPSRFSGSGSGTEFTLTISSLQPDDFATYYCQQGYSWGNVDNVFGGGTKVEIK
notes: scFv at the C-terminus of an Fc; The Fc part is not specified; not shown: The Fc part and the linker joining it to the scFv
With B8, in assay [1], the Kd was determined as 0.412 nM, the off-rate (koff) was found to be 0.000171 s⁻¹ and the kon is 414000 M⁻¹ s⁻¹.

B9: Fc-PD224D1 scFv IgG1 null (Fc fusion, not shown: a dimerising Fc or GST; small tags and cut ends)
scFv: EVQLVESGGGLVQPGGSLRLSCTASGFSLSSYAMSWVRQAPGKGLEYIGYIGDTTGIAYASWANGRFTISKDNTKNTVDLQMNSLRAEDTAVYYCARGWSYLDIWGQGTLVTVSSGGGGSGGGGSGGGGSGGGGSALVMTQSPSSLSASVGDRVTITCQASQNIYSNLAWYQQKPGKVPKLLIYQASTLASGVPSRFSGSGYGTDFTLTISSLQPEDVATYYCQGGYYSAALNTFGGGTKVEIK
notes: a component control of the bispecific antibody
By EC50 (read off the curve) is commonly meant the concentration needed to bring the measured effect to its halfway point. Turning to B9, the “EC50 (read off the curve)” value in assay [3] was approximately 1 nM. In addition, the Kd in assay [4] amounted to 1.04 nM.
